Each sequence was assayed against T1, EcxR (Ehrlichia chaffeensis) (UniProt Q2GG40) (assay: EMSA). Conditions: EMSA: 10 mM Tris-HCl pH 7.5, 50 mM KCl, 5 mM MgCl2, 2.5% glycerol, 1 mM DTT, 50 ug/mL poly dI-dC, 20 fmol probe, room temperature 25 min (20 min in Fig …).
T1 sequence: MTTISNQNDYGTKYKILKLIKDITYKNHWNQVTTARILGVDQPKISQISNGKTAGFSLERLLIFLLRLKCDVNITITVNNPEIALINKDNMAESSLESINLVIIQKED
“ATATAACCTAATAGTGACAAATAAATTAACAATAGTAGAAGTGTCATATAAAAGCAAGTCAGAATATAAATTTTTGTATAAAATATCGGTAACTTTTGTAAGGAAAATTTAATATATTACGTCAG (double strand) [p28-Omp19-P3]” was tested, and the binding was “binds”.
“CAGGAGTTACTCCATGTGCAAGTAGTATCTTGTAAACACTAGTGTCTTTAACAACTGCAAGAGCTTGTAATAATCTCTCCACAGTTACATAAGTATCCTGATTCCTTTTTGCTAAACTAATAGCTTCTTCTAAAACCTGAGCCATTTCTTTTGATAAATGTATATGACCACTACCACTTCCACTTACAACAGGTAATTTACTTAAGGAGAGTTTTATATCACTGTATATCTTATCAATATCACATCCACATGAAGTCAGCAACA (double strand) [clpB-ORF]” was tested, and the binding was “no binding”.
For “CTTTTGTAAGGAAAATTTAATATATTACGTCAGGTAAGTAATAGCAAAAAAACTGGTTAAGTATAGTATCATGTGTAAAGGTGAGAAAAACAGCAC (double strand) [p28-Omp19-P2]”, the binding was “binds”.
In the case of “GACTCTAGACTTTTAATTTTATTATTGCCACATGTTAAAAATAATCTAAACTTGTTTTTATTATTGCTGCAGGTAAATAAAAATAGTGGCAAAAGAATGTAGCAATAAGAGGGGGGGGGGGGGGACTAGTTTATAAGTGC (double strand) [p28-Omp19-P1]”, the binding is reported as “no binding”.
For “GATTAATAGATTCTAGGGAACTCTCTGCCATATTGTCTTTGTTAATTAATGCAATTTCTGGGTTATTGACAGTGATTGTTATATTCACATCACATTTTAGACGTAACAAAAATATAAGTAAACGTTCTAATGAAAATCCTGCTGTTTTACCATTACTAATCTGAGATATTTTTGGTTGGTCTACGCCCAGTATCCTTGCTGTGGTTACTTGGTTCCAGTGATTCTTA (double strand) [ecxR-ORF]”, the binding was “no binding”.
For “GGATAAGTACTTTAGCAAGTGGTAAAAGCAAGTCTACTCATATTTTTATTAATTAAGTAGTAAAGTTAACTATAGATTTTATTAAAATTTTTATTCTAATCACTTTAAATATCAATTACTTTTGTTGTAAATTTGAAAGAAATTTTATATTCTAGAC (double strand) [p28-Omp14-P5]”, the binding was “no binding”.
In the case of “GGTGTTTTTATAATTTTATTACTAAGATATTTTTTTATTAATAACTATATGCCAATACAGATAGTATAAGTATCTTATAATAAATCCATCATCTTAATGTAAGTAATACATATAACTAATAACAATAATATATTAACATTTTTATAGAATATCTATCATAATCAAACATTAACTAAATTCTCTACTAGCAGTAAATTGAATATCTACAATTTACACGTTCTACTGTTTTGCTTGCCAACTTAATTGATACTGCTTATCATCTGAATATCAAAAGATGATAGGGTACTGT (double strand) [clpB promoter EMSA probe]”, the binding is reported as “binds”.
For “GGTTTAGCCATTTTAAATGTGTTTAAAAAGAAATCTTTTTGACATTATTGTAAACTTATGATTTTTATTAAGGGGAAGAGTGAACAAAATACTGTTATTAGAAGTTTACAGAAAGTTAACTG (double strand) [p28-Omp14-P2]”, the binding was “no binding”.
“GTACCTAAATCTATACCTATAACAGCCATAAATAGCCCCCTTACATAAAAATCAAAACTATAATCACAGATATAATAACCAAATCATAAGATTACAACCCCATTTAACACAAGTTCATAAATTTATGAA (double strand) [dnaK promoter EMSA probe]” was tested, and the binding was “binds”.
With “GTTCCGTATTTATTAATATATGTTATAATGTAATTAAATAAGGATACTAGATTTGCTCATAATGCATGTACTGAATTTGTGATTTGAAATAACAAGACTTAAATGTCGAATTTAGCTTCTGTCCTAGTGGATAAGTACTTTAGCAAGTGGTAAAAGCAAGTCTACTCATATTTTTATTAATTAAGTAGTAAAGTTAACTATAG (double strand) [p28-Omp14-P4]” the binding was “binds”.
For “GTTTTCTGCTTTATTAGAATGATTCCCAAATAAATTTTAATTAATTACTGTTCCGTATTTATTAATATATGTTATAATGTAATTAAATAAGGATACTAGATTTGCTCATAATGCATGTAC (double strand) [p28-Omp14-P3]”, the binding was “binds”.
With “TAACTTACTTAAAAAATTAACTACTTAAATATCAACGATGTTTTCAGTATCAAGTCAATTGATTTTTTATGTGTTATGTAAACTGTTACAGAGTAATATAATATTTCTACTGGGTCCTATAAAGTTCTAACCTTGTAAACATTTGTGCAATATGTATTATAAAATTTATTGATTGATACTTGAAATTAGATTTCTTGATATTATATATGATCTTAGCTAGTAGTATCTGATGCTACTGATAATTTATTTTTTTATAGAGGTAG (double strand) [groES/L promoter EMSA probe]” the binding was “binds”.
With “TTGCTCAACCATAAAATAATGGGAAATTACCTTTTCTAGGAAGTTTCTCATTATTTAACAGTTAACTTTCTGTAAACTTCTAATAACAGTATTTTGTTCACTCTTCCCCTTAATAAAAATCATAAGTTTACAATAATGTCAAAAAGATTTCTTTTTAAACACATTTAAAATGGCTAAACC (double strand) [p28-Omp14-P1]” the binding was “binds”.

These sequences were tested against T1, EcxR (Ehrlichia chaffeensis) (assay: Southwestern blot). Conditions: EMSA: 10 mM Tris-HCl pH 7.5, 50 mM KCl, 5 mM MgCl2, 2.5% glycerol, 1 mM DTT, 50 ug/mL poly dI-dC, 20 fmol probe, room temperature 25 min (20 min in Fig …).
“CTACCTCTATAAAAAAATAAATTATCAGTAGCATCAGATACTACTAGCTAAGATCATATATAATATCAAGAAATCTAATTTCAAGTATCAATCAATAAATTTTATAATACATATTGCACAAATGTTTACAAGGTTAGAACTTTATAGGACCCAGTAGAAATATTATATTACTCTGTAACAGTTTACATAACACATAAAAAATCAATTGACTTGATACTGAAAACATCGTTGATATTTAAGTAGTTAATTTTTTAAGTAAGTTAGCATGCGCTG (double strand) [groES/L promoter (SWB probe)]” was tested, and the binding was “binds”.
“GGTGTTTTTATAATTTTATTACTAAGATATTTTTTTATTAATAACTATATGCCAATACAGATAGTATAAGTATCTTATAATAAATCCATCATCTTAATGTAAGTAATACATATAACTAATAACAATAATATATTAACATTTTTATAGAATATCTATCATAATCAAACATTAACTAAATTCTCTACTAGCAGTAAATTGAATATCTACAATTTACACGTTCTACTGTTTTGCTTGCCAACTTAATTGATACTGCTTATCATCTGAATATCAAAAGATGATAGGGTACTGT (double strand) [clpB promoter (SWB probe)]” was tested, and the binding was “binds”.
With “GTACCTAAATCTATACCTATAACAGCCATAAATAGCCCCCTTACATAAAAATCAAAACTATAATCACAGATATAATAACCAAATCATAAGATTACAACCCCATTTAACACAAGTTCATAAATTTATGGCATGCGCTG (double strand) [dnaK promoter (SWB probe)]” the binding was “binds”.
In the case of “TACCCGGACAAACTGACTTTCATGTTTAATATAAATTATTGATCCAATCAAGCTAAAAAGTAAATAAATTTTATCTTATATTTCATAAAGCATAATATGTTATTTCTGTATATTATATAATTAGTATACTATTCCAGCAAACTAGATAGAATATATCCATTAAATAACTATTGCATTCACTTTATGCATGATTTATCTTACATAGGTTGCTTTGT (double strand) [tr1 promoter (SWB probe)]”, the binding is reported as “binds”.

What follows are sequences tested against T2, Tr1 (Ehrlichia chaffeensis) (UniProt Q2GF81) (assay: Southwestern blot). Conditions: EMSA: 10 mM Tris-HCl pH 7.5, 50 mM KCl, 5 mM MgCl2, 2.5% glycerol, 1 mM DTT, 50 ug/mL poly dI-dC, 20 fmol probe, room temperature 25 min (20 min in Fig …).
T2 sequence: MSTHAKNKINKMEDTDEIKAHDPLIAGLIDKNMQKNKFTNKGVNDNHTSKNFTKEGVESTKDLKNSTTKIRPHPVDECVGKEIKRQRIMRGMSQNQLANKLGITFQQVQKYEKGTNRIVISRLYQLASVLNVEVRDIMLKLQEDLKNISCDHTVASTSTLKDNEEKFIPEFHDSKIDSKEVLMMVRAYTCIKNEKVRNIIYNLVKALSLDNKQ
For “TACCCGGACAAACTGACTTTCATGTTTAATATAAATTATTGATCCAATCAAGCTAAAAAGTAAATAAATTTTATCTTATATTTCATAAAGCATAATATGTTATTTCTGTATATTATATAATTAGTATACTATTCCAGCAAACTAGATAGAATATATCCATTAAATAACTATTGCATTCACTTTATGCATGATTTATCTTACATAGGTTGCTTTGT (double strand) [tr1 promoter (SWB probe)]”, the binding was “binds”.
